The series in a line: label from the status in PepcDB records.

With “MMTPSRAEKSLTIVIPALNEQDKIADTIDGVLPLARELLDDFEIFLIDDGSTDATGAIMNEFAASDRRITVHHNAERRGVGAGFEYALSRAKFDAITLIPGDHAFQNEGIARMFKAVGAADMVITYRDNQSDRSVNRSIQSHSLRFVLNCMFGFWLSDYHSMIVYPVKWLRQIAVRADGYGYQICALISLLQLGLTYVQVPVSLNAELKGSSRALRLRTYLELIGTIVSLLRRVPIRDVDRDQVPVDAGRTPAR”, the protein production result is given as “failed”. Next, “MMTTAEQIPFQLILNSGNARSFAMEALQFAKQGKMAEADEAMVKAKEAINEAHHFQTELIQSEARGEKTEISVLLIHAQDHLMNAITVKELAAEFIDLYKKLEAKGE”: “not failed”; “MMTVVKGLVTFRPMFALVLLSALVGCASAPKKAPPPSSFDATMSRAEAEVTNGGPEQALKTFEDAGRADPTRKEPWVRIAQLQFDRANYARAIVAAQEVLQRDPNDLVADGVLTVAGFRIANQSLQRLQGRGALVSGTARKEAEMLASTLRATMGDDILQPDEPKKRKPVRNARRAAPPAAKDAAPPKQTPNASADPFQNLGGN”: “failed”; “MMYFGIIPLILFIIFLISYLKDPRKIINGFLFNAFICFFLLFCVIVSLNSDSDVLRYIIFLPFLALLIMLPFGIVALMFGLFLNARILMKREGRRFTNCLTLLAALGMLFFMLLPIINPASLVSSHLEPIFAAISLISIYFFIHLSNFLSAYFLYQFNRPRRNQDFIIVLGSGLINDKVPPLLASRINKAIDFYWKQAAVNTPPTIIFSGGQGPDEGLPEAEAMQNYAVEKGIPIEHTVQENRSVNTYQNMLFSKEIMDSLKPEGKYKSIFTTNNFHLFRAGIYARQAGLNSQGIGSKTAFYYWPNAMIREYVAIVVMGRKRHMKICGTILGFAVFVSILSFIFS”: “failed”. As to “MNAADRVMQSYGRCCASTGFFDDFYRHFLASSPQIRAKFATTDMTAQKHLLRAGIMNLVMYARGMSDSKLRALGASHSRAALDIRPELYDLWLDALLMAVAEHDRDCDAETRDAWRDVMGRGIAVIKSYY”, the protein production result is on record as “not failed”. Next, “MNADTAIRIIEPPPSRGQLLYDGIRSLRKPKPDAAPQLPTERLVRPAVELKADEIARYARACGFRREHGVPLAFPHTLAFPLHLLLLTRPTFPYPASGMVHLANRIRQYQRLEEGQALRLEVFAERWLAHPKGQALSIATRAHSGGSLVWESDSLYLRRGVAGPIGEPWEGSLQWDEQALVRTQRWSLGGDLGRRFAQVSGDFNPIHTSWLGARLFGFRRPIAHGMWTLGRALAAQQPPHPLAAAQLDCEFKLPIFLPAAVTLWNRLPDGPRHEFEVRNNAGDKPHMRGLFIWGAR”: “failed”; “MNAGHLKEAAALYAEIVALNPGWEHGTALYSLACCYEDLGELTSAEECYRRALSYEPESPTFIGGLASFLHLHGSQS”: “failed”. For “MNAIWIAVAAVSLLGLAFGAILGYASRRFAVEDDPVVEKIDEILPQSQCGQCGYPGCRPYAEAISCNGEKINRCAPGGEAVMLKIAELLNVEPQPLDGEAQEITPARMVAVIDENNCIGCTKCIQACPVDAIVGATRAMHTVMSDLCTGCNLCVDPCPTHCISLQPVAETPDSWKWDLNTIPVRIIPVEHHA”, the protein production result is on record as “failed”. Next, “MNAKLEVNGELVKESYVYLLSRYLVLRQENFDTKEDKIPYNTLKHNSVAPADANFVNPNFDVVYSEAWIAVDDDNAVILEVPEIKNRYYTVQLLDGWGEVVTNINERNYPDHPYGKFAFVKKGTNPSVPSDAVKIELPSEKVKVLLRVEQKDDPEGAVKLQKAFKFDAPDNIKIKEPLEIPHFTNADFLLEEIYSNLEELLATYPDKMPKAAEFQDKARQVAAYIELGDEQKAEVRNLIVKEAIPYFTDGAKGFGTQKGGWSVTYVAGAFENDILARAIINYGGIWANSIQEALYFIGQQGTDGELLSGDKVYKIHFPKDQLPNGLAEAFWSVTLYGVPDYHVIPNKLNKFSINDYTGPKTNEDGSLSLYIAAEKPADVDPGNWLPSKAGKGFSLNFRLYVPKKEVLEGKVFLPPLEVL”: “failed”; “MNALARLRGRKVVPQRSDGELDAMAAAGAVVAAALQAVRAAAVAGVSTLSLDQIAESVIRDAGAVPSFLGYHGYPASICASVNDRVVHGIPSAAEVLAPGDLVSIDCGAVLDGWHGDAAITFGVGALDPADEALCQGTRESLEAGIAAMVPGNRLTDVSHAIELGTRAAETRHGRAFGIVEGYGGHGIGRQMHMDPFLPNEGSPGRGPLLAPGSVLAIEPMLTLGTGKTVVLDDQWTVITTDGSRAAHWEHTVAVTDAGPRILTIG”: “failed”; “MNALPSSAEFSRAVGGDAVSREAVIRIEHLSKTFSDAAGPVLDDVSLTIRRGEIHGIIGRSGAGKSTLVRCINLLERPSAGRVIVSGREITSLRGRALRNARRDIGMIFQHFNVLSSHTVAGNVALPFKVAGLPRAEIARRIPPLLELVGLAHKADAYPSELSGGQKQRVGIARALALDPSVLLCDEATSALDPETTDQILALLRDINRKLGLTIVLITHEMHVVRDIATRVAVLDHGRVVEEGATFDVLAFPKSAVARSFLSGLVAHELPPPVAAQLLPAAVPGSDPVLRIVFTGTAAHDPIVADLVSVFGIQPNILHGRIDYVGDRPLGVLTLVAGGAGEKLPAVLSHLSSLGLVVEVIGHAVRSAVARRHSAARLEHHHHHH”: “failed”. Next, “MNALRKVGAVAWAAVGSLLLSGCEFNGWYDVQLPGGAAADGHAYHVTVEFRDVLDLVPQSAVKVNNVTVGAVEEVQLDGWHARVRLRVADSVKLPANAVAELRQTSMLGEKYVALSTPPGTAPVGRLGDGDRIPLSRSGRNPDIEEVLSALSALLNGGGVAQLKTITVELNKALDGREDRVRSLLKELNTFIGGLDGRRKDIIHALKAVDRLAGRLGKEKKTIAQAVDTMPPALKVLADQRRDLTRMLTALSKLGTTGTKVVNASHDDTVANLKQLRPILQQLNKAGADLPNSLELLTTYPFPRNAVDAVRGDYVNLDITADLDLSALYRNLAGGSDKSGGGNGESTQPETPDIPDLPDLPTVPTPTALPSAPSLPSSPSMPSAPSGGGGPLCPPVCTSSYTTRGEPPEGIDLALAELMLKGVQP”: “failed”; “MNANENVSDDRFAEMVWEAVSGGATLKDVHGIPQDMMEGLYAHAYDFYHKGRLDEAETFFRFLCIYDFYNPDYIMGLAAVCQLKKQFQKAVDLYAVAFALSKNDYRPVFFTGQCQLFMRKAAKARQCFELVCEQSGDESLRDKAQVYLDSLQEAEAEQSRQQEKEQA”: “failed”. Regarding “MNAPLSHSRPMMQPSEDKSLATVFPFAGRVLDETPMLLGEGPTFDPASGTAWWFNILERELHELHLASGRKTVHALPFMGSALAKISDSKQLIASDDGLFLRDTATGVLTLHAELESDLPGNRSNDGRMHPSGALWIGTMGRKAETGAGSIYHVAKGKVTKLFADISIPNSICFSPDGTTGYFVDTKVNRLMRVPLDARTGLPTGKAEVFIDSTGIKGGMDGSVCDAEGHIWNARWGEGAVDRYDTDGNHIARYEVPGKQTTCPAFIGPDASRLLVTSAREHLDDDAITANPQHGLTFELGIEVKGRFEPLYRL”, the protein production entry is reported as “not failed”. In the case of “MNARLGVSLKILSALCATLMLACVKGLNGAIPTGEVIFFRSFVALFPLLLWLKVQGNILQRIKTKNIFGHLIRGFSGTGGMYFNYLALVYISLADATAISYAAPLFTVLMAAILLKENVHFSRWLAVIVGFCGILIMLSAKLTISNGLFSSGFALDGTALGATFALLAAACAATSNIQIRFLNGVESPGAIVFYFSLMTTLIGLFTLVFGWKMPHGWQWLLLIGCGLFGGIAQILVTLSLRYADASLLAPFDYTTLVWSMVIGYLFLDNLPEYATLMGASVVALAGIFTIWCNRRQRKGHIVRSS”, the protein production entry is recorded as “failed”. With “MNAVLVAVAIMLLLSLLRVQVIVAIIVGALTGGLIGGLGISETINTFTTGLGNSAPIALSYAMLGGFAISLSKTGLPDAMIQTALKWIGNEQDTKKQVYSKILILFIILTMACFSQNVIPVHIAFIPILIPALLKVLNELRVDRRLVTCIITFGLITPYMWIPAGFGKIYHDVLQTNAAQSGLTFDVTLIPKAMTIPAIGMIIGLCVAVFITYRKPRTYETEQIHTTENEIVPYTKRSITFGLLSIIATLTVQLTTESMIFGALAGIIVLSVSGSLPLKEADAILTSGMRMMSFIGFVMIAAAGFGAVLRKTGHVESLVQTSAHIIGNNKPLAAFLMLVIGLLVTMGIGSSFSTIPILTTIFVPLCIQLGFSPMATIAIIGTAGALGDAGSPASDSTLGPTSGLNADGQHHHIWDTCVPTFLHYNIPLLIFGFIAAITL”, the protein production result is on record as “failed”. In the case of “MNDAAVWVPVPAMFYWGWLVPLIFGTIFGWRYHRDKVRLGNGIWFSLFFYSFLTMLAITILGSNIHWLIIISGALFVLLILLIGLIFTLQAFLLLWNAWIMWRHESHTLANMLTLYLGLGILVLPFLGNLLSSHVPQPVSYFLTLFPNLVIFYLGFLFYNYLTMLTIYQFNWPRLRQDYIIVLGDGWAETQSKTTFQNMQFSKQLIAQGPAKNPRTIFVTNKYGRLQI” it was “failed”; in that of “MNDDLSWMLDSALEIPGALHAVLISADGLLMARTQDFDKDDADRVAAAMSGVQSLSRTLAFFCEDPSQTWRQTLVEFDGGWVFLISAGEGAYLGVSASPEVDMADITFRMQQLVAQLGKRLTTPPRENLGARS”, “failed”.

Regarding “MNDDVEFRYADFLFKNNNYAEAIEVFNKLEAKKYNSPYIYNRRAVCYYELAKYDLAQKDIETYFSKVNATKAKSADFEYYGKILMKKGQDSLAIQQYQAAVDRDTTRLDMYGQIGSYFYNKGNFPLAIQYMSKQIRPTTTDPKVFYELGQAYYYNKEYVKADSSFVKVLELKPNIYIGYLWRARANAAQDPDTKQGLAKPYYEKLIEVCAPGGAKYKDELIEANEYIAYYYTINRDKVKADAAWKNILALDPTNKKAIDGLKMKLEHHHHHH”, the protein production result is on record as “not failed”. For “MNDLTKGKPLKLIFWFTIPLLIGNIFQQFYSLSDTLIVGQTLGVKALAAVGSTGSVQFLIIGFAQGLTAGLSILTAQHFGARDFKAVRRSFAISIVVSLIVGIILTILSLIFVDHILLLMQTPTDIIADARTFLQIMLGGMLAPIAFNLLSNIIRALGDSRTPLWFLIISALINIGLELLFILVFKWGIAGASWATILAQTIATLMCVVYIIVKVPILHIGRRHFKLVWSEVKAHLNVGLPMAFQMSIIAIGTIVLQAALNSLGTNSVAATTAAQKIDQVATQPLMSFGVTMATFAAQNYGAHQYERIITGVKQTMWLSGSFSVAAGLIEIIWGKQLVGFFVGHQDMAVLNLSQTYFNVIGSTYILLSMLFIMRNTLQGLGRSAIPTLAGAAELFMRVFAALILVRIFDYAGACSSEPLAWLGSCAVLLPAYIKSVHDLRQQARMTNTVAEGAEPILNDSEKL”, the protein production result is recorded as “failed”.

For “MNDLVESLIYEVNNMQQNFENVKSQQQDHDFYQTVKPYTEHIDSILNEIKLHREFIIEVPYMNSRKFELLIANIEQLSVECHFKRTSRKLFIEKLKSVQYDLQNILDGVTKEGTDG”, the protein production entry is on record as “not failed”. Turning to “MNDQVRLHYETWVYPRYPLAASVRRSDTYALSLDALYARFNGTLPPAAARRILLAGCGSFSPYPTAVANPGVPVTALDLSAANLRRARLHAWMHGRFGISFEQGDLMDPAAAQGEYGFIDSFGVIHHLADPLAGLRALERRLAPGGILRLMVYSRGARRVVESARRALRFAGVRDVARLKDLLRRSPPGSRLSHAVEASGEGGGDAGLADALLHPRARIFSIDELMAMVGETGLVPLRFAHSRALAEPGAEVVRLRGLEQAGEPVPNFVLYLGREPRGGCGLAPDALLMLNPALRHDVGVLRLAPLAVPPRLGLKNPVLGFADRRFLRRFSTPLPVSALTPTDRERVGPFLDALFVIPFR”, the protein production result is given as “failed”. In the case of “MNDRVIQNSRQGERVLAALSYFSIFFAPIILPIFIWIFADRPTSNHAAKSLAYHIITYIGPILLILSIGFGGVLINNSSTITSVIMITVAIILFVITVWYTIKNIYRGVRVLISEHAYFHP” it was “failed”.

Source of the values: a protein production outcome set (Wang et al. 2014).
